Measurements as given in the supplement of paper PMC9112550, “Optimization of the antimicrobial peptide Bac7 by deep mutational scanning” (BMC Biology, 2022).

tested on: Escherichia coli TOP10; test: shrunken log2 fold change of peptide-encoding DNA abundance (4.5 h post-induction vs induction); higher = less antimicrobial activity (less host growth inhibition); details: time post-induction: 4.5 h; library: site-saturation at positions 5, 18, 19, 20
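Also: peptides expressed intracellularly from a pBAD plasmid library in pooled LB shake-flask culture, induced with 0.3% L-arabinose, DNA abundance read by NGS, three biological replicates, DESeq2 with apeglm shrinkage.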

Sequence | shrunken log2 fold change
RRIRKRPPRLPRPRPRPHDAPRP | 0.437
RRIRPRPPRLPRPRPRPGTTPRP | 0.195
RRIRKRPPRLPRPRPRPKKPPRP | 0.0909
RRIRERPPRLPRPRPRPHPRPRP | 0.278
RRIRTRPPRLPRPRPRPKPFPRP | 0.122
RRIRGRPPRLPRPRPRPISLPRP | -0.228
RRIRVRPPRLPRPRPRPRGFPRP | 0.26
RRIRGRPPRLPRPRPRPRLEPRP | 1.16
RRIRNRPPRLPRPRPRPFICPRP | -0.38
RRIRARPPRLPRPRPRPLIKPRP | 0.0844
RRIRMRPPRLPRPRPRPYPGPRP | 0.0814
RRIRTRPPRLPRPRPRPEHMPRP | -0.0375
RRIRWRPPRLPRPRPRPDYPPRP | -0.169
RRIRWRPPRLPRPRPRPNLTPRP | -0.222
RRIRCRPPRLPRPRPRPEATPRP | 0.95
RRIRPRPPRLPRPRPRPAEAPRP | 0.103
RRIRGRPPRLPRPRPRPYYMPRP | -0.238
RRIRFRPPRLPRPRPRPIQCPRP | -0.105
RRIRSRPPRLPRPRPRPDEDPRP | -0.00181
RRIRERPPRLPRPRPRPTPTPRP | 0.174
RRIRYRPPRLPRPRPRPSKRPRP | -0.236
RRIRQRPPRLPRPRPRPKGEPRP | -0.031

Sequence | shrunken log2 fold change
RRIRYRPPRLPRPRPRPFVVPRP | -0.786
RRIRYRPPRLPRPRPRPLKQPRP | -0.0485
RRIRKRPPRLPRPRPRPTCDPRP | -0.00872
RRIRGRPPRLPRPRPRPFMKPRP | -0.248
RRIRLRPPRLPRPRPRPVIFPRP | -0.141
RRIRYRPPRLPRPRPRPFWNPRP | -0.178
RRIRRRPPRLPRPRPRPCWHPRP | -0.0148
RRIRKRPPRLPRPRPRPYQHPRP | -0.0857
RRIRFRPPRLPRPRPRPFDPPRP | -0.135
RRIRARPPRLPRPRPRPTSQPRP | 0.211
RRIRNRPPRLPRPRPRPLDFPRP | -0.386
RRIRVRPPRLPRPRPRPSWFPRP | -0.262
RRIRNRPPRLPRPRPRPDCAPRP | 0.315
RRIRYRPPRLPRPRPRPADTPRP | -0.00151
RRIRHRPPRLPRPRPRPDFEPRP | 0.18
RRIRGRPPRLPRPRPRPVHMPRP | -0.0938
RRIRERPPRLPRPRPRPIRQPRP | 0.00357
RRIRGRPPRLPRPRPRPFTMPRP | -0.278
RRIRGRPPRLPRPRPRPLIDPRP | 1.36
RRIRWRPPRLPRPRPRPFQIPRP | -0.25
RRIRIRPPRLPRPRPRPEQAPRP | 0.1
RRIRVRPPRLPRPRPRPPCAPRP | 0.238

Sequence | shrunken log2 fold change
RRIRPRPPRLPRPRPRPFWVPRP | 0.0111
RRIRSRPPRLPRPRPRPHSDPRP | -0.0834
RRIRCRPPRLPRPRPRPGAPPRP | 0.734
RRIRTRPPRLPRPRPRPEALPRP | 0.0496
RRIRIRPPRLPRPRPRPNMQPRP | -0.29
RRIRARPPRLPRPRPRPISKPRP | -0.401
RRIRFRPPRLPRPRPRPELMPRP | 0.179
RRIRMRPPRLPRPRPRPEVLPRP | -0.0436
RRIRNRPPRLPRPRPRPTLGPRP | 0.3
RRIRPRPPRLPRPRPRPLVYPRP | -0.0742
RRIRYRPPRLPRPRPRPKTEPRP | -0.00177
RRIRRRPPRLPRPRPRPCVMPRP | 0.113
RRIRHRPPRLPRPRPRPYDPPRP | -0.00884
RRIRERPPRLPRPRPRPEKIPRP | 0.0141
RRIRQRPPRLPRPRPRPSFAPRP | 0.0485
RRIRRRPPRLPRPRPRPIWTPRP | 0.181
RRIRARPPRLPRPRPRPQVCPRP | 0.0435
RRIRWRPPRLPRPRPRPFMYPRP | -0.0072
RRIRVRPPRLPRPRPRPGLFPRP | 0.0268
RRIRNRPPRLPRPRPRPGWDPRP | -0.00506
RRIRKRPPRLPRPRPRPWGLPRP | -0.22
RRIRCRPPRLPRPRPRPHPRPRP | 0.444

Sequence | shrunken log2 fold change
RRIRSRPPRLPRPRPRPYFVPRP | -1.14
RRIRVRPPRLPRPRPRPCWAPRP | 0.154
RRIRARPPRLPRPRPRPTWTPRP | 0.425
RRIRARPPRLPRPRPRPIDWPRP | 0.0607
RRIRFRPPRLPRPRPRPRWNPRP | 0.00853
RRIRKRPPRLPRPRPRPIPNPRP | 0.159
RRIRHRPPRLPRPRPRPDLTPRP | -0.000777
RRIRMRPPRLPRPRPRPFYDPRP | -0.12
RRIRSRPPRLPRPRPRPATFPRP | -0.366
RRIRYRPPRLPRPRPRPCCCPRP | -0.211
RRIRHRPPRLPRPRPRPLLEPRP | 0.0851
RRIRPRPPRLPRPRPRPDGWPRP | 0.354
RRIRRRPPRLPRPRPRPLMNPRP | 0.312
RRIRKRPPRLPRPRPRPVEVPRP | 0.0844
RRIRRRPPRLPRPRPRPNFFPRP | 0.184
RRIRERPPRLPRPRPRPCHRPRP | -0.02
RRIRFRPPRLPRPRPRPLGEPRP | 0.0158
RRIRIRPPRLPRPRPRPDLPPRP | -0.334
RRIRIRPPRLPRPRPRPYWHPRP | -0.718
RRIRTRPPRLPRPRPRPDSHPRP | -0.153
RRIRPRPPRLPRPRPRPHPLPRP | 0.0451
RRIRIRPPRLPRPRPRPDQFPRP | -0.321

Sequence | shrunken log2 fold change
RRIRKRPPRLPRPRPRPWGHPRP | -0.0374
RRIRGRPPRLPRPRPRPWYWPRP | 0.187
RRIRYRPPRLPRPRPRPHVIPRP | -0.448
RRIRERPPRLPRPRPRPWTHPRP | -0.0081
RRIRWRPPRLPRPRPRPSYHPRP | -0.568
RRIRWRPPRLPRPRPRPPNLPRP | -0.24
RRIRCRPPRLPRPRPRPYTWPRP | -1.09
RRIRFRPPRLPRPRPRPCWTPRP | -0.323
RRIRDRPPRLPRPRPRPNWHPRP | 0.144
RRIRMRPPRLPRPRPRPQCTPRP | 0.0479
RRIRTRPPRLPRPRPRPCHQPRP | -0.172
RRIRHRPPRLPRPRPRPTYYPRP | -0.0104
RRIRTRPPRLPRPRPRPWCDPRP | -0.596
RRIRIRPPRLPRPRPRPMIIPRP | -0.295
RRIRHRPPRLPRPRPRPTYRPRP | -0.0234
RRIRDRPPRLPRPRPRPSYEPRP | 0.175
RRIRTRPPRLPRPRPRPCGEPRP | -0.23
RRIRIRPPRLPRPRPRPDKYPRP | -0.189
RRIRMRPPRLPRPRPRPVHCPRP | 0.517
RRIRARPPRLPRPRPRPQSDPRP | 0.0175
RRIRVRPPRLPRPRPRPPWFPRP | 0.0493
